From US20120058906A1 come the findings set out here.

Test [1] deals with Recombinant Human DLL4 (R&D Systems Cat#1506-D4/CF) (human) (UniProt Q9NR61). As to the kind of experiment: MSD ECL multi-spot plate, antigen immobilized; Fab 12 nM; blank spot 573.
In test [2] the target is rHuman HGF R/c-MET/Fc Chimera, CF (R&D Systems Cat#358-MT/CF) (human) (UniProt P08581). Described as above.
The target of test [3] is rHuman Notch-1/Fc Chimera, CF (R&D Systems Cat#3647-TK) (human) (UniProt P46531). The description is as above.
For test [4], the target named is Recombinant Human DLL4 (R&D Systems Cat#1506-D4/CF) (human) (UniProt Q9NR61). As to the kind of experiment: MSD ECL multi-spot plate, antigen immobilized; Fab 1.2 nM; blank spot 227.
Test [5] concerns the target rHuman HGF R/c-MET/Fc Chimera, CF (R&D Systems Cat#358-MT/CF) (human) (UniProt P08581). Described as above.
Test [6] addresses rHuman Notch-1/Fc Chimera, CF (R&D Systems Cat#3647-TK) (human) (UniProt P46531). The test is described as above.
Test [7] concerns the target Recombinant Human DLL4 (R&D Systems Cat#1506-D4/CF) (human) (UniProt Q9NR61). The test is described as follows: MSD ECL multi-spot plate, antigen immobilized; Fab 0.12 nM; blank spot 264.
The target of test [8] is rHuman HGF R/c-MET/Fc Chimera, CF (R&D Systems Cat#358-MT/CF) (human) (UniProt P08581). The description is as above.
Test [9] concerns the target rHuman Notch-1/Fc Chimera, CF (R&D Systems Cat#3647-TK) (human) (UniProt P46531). The description is as above.
The target in test [10] is Recombinant Human DLL4 (R&D Systems Cat#1506-D4/CF) (human) (UniProt Q9NR61). As to the kind of experiment: MSD ECL multi-spot plate, antigen immobilized; Fab 120 nM; blank spot 6749.
Test [11] has as its target rHuman HGF R/c-MET/Fc Chimera, CF (R&D Systems Cat#358-MT/CF) (human) (UniProt P08581). The description is as above.
Test [12] addresses rHuman Notch-1/Fc Chimera, CF (R&D Systems Cat#3647-TK) (human) (UniProt P46531). Described as above.
Test [13] has as its target Recombinant Human DLL4 (R&D Systems Cat#1506-D4/CF) (human) (UniProt Q9NR61). The test is described as follows: ECL (MSD multi-spot) screen, antigen spotted on plate, Fab at 0.12 uM; blank spot 2225.
Test [14] has as its target rHuman ErbB2/Fc Chimera, CF (R&D Systems Cat#1129-ER) (human) (UniProt P04626). The test is described as above.
Test [15] addresses rHuman HGF R/c-MET/Fc Chimera, CF (R&D Systems Cat#358-MT/CF) (human) (UniProt P08581). Described as above.
In test [16] the target is rHuman Notch-1/Fc Chimera, CF (R&D Systems Cat#3647-TK) (human) (UniProt P46531). The test is described as above.
Test [17] deals with rHuman EGF R/Fc Chimera, CF (R&D Systems Cat#344-ER) (human) (UniProt P00533). The test is described as follows: ECL (MSD multi-spot), Fab […]; blank 376.
In test [18] the target is rHuman ErbB2/Fc Chimera, CF (R&D Systems Cat#1129-ER) (human) (UniProt P04626). The test is described as follows: ECL (MSD multi-spot), Fab […]; blank 376.
The target of test [19] is rHuman Erythropoietin R/Fc Chimera, CF (R&D Systems Cat#963-ER) (human) (UniProt P19235). The test is described as follows: ECL (MSD multi-spot), Fab […]; blank 376.
The target of test [20] is rHuman HGF R/c-MET/Fc Chimera, CF (R&D Systems Cat#358-MT/CF) (human) (UniProt P08581). The test is described as follows: ECL (MSD multi-spot), Fab […]; blank 376.
Test [21] deals with rHuman IGF-1 sR (IGF-1 sR), CF (R&D Systems Cat#391-GR) (human) (UniProt P08069). As to the kind of experiment: ECL (MSD multi-spot), Fab […]; blank 376.
Test [22] deals with rHuman Notch-1/Fc Chimera, CF (R&D Systems Cat#3647-TK) (human) (UniProt P46531). As to the kind of experiment: ECL (MSD multi-spot), Fab […]; blank 376.
Test [23] concerns the target rHuman EGF R/Fc Chimera, CF (R&D Systems Cat#344-ER) (human) (UniProt P00533). The test is described as follows: ECL (MSD multi-spot), Fab 210 nM; blank 833.
Test [24] has as its target rHuman ErbB2/Fc Chimera, CF (R&D Systems Cat#1129-ER) (human) (UniProt P04626). As to the kind of experiment: ECL (MSD multi-spot), Fab 210 nM; blank 833.
Test [25] addresses rHuman Erythropoietin R/Fc Chimera, CF (R&D Systems Cat#963-ER) (human) (UniProt P19235). The test is described as follows: ECL (MSD multi-spot), Fab 210 nM; blank 833.
Test [26] addresses rHuman HGF R/c-MET/Fc Chimera, CF (R&D Systems Cat#358-MT/CF) (human) (UniProt P08581). The test is described as follows: ECL (MSD multi-spot), Fab 210 nM; blank 833.
Test [27] has as its target rHuman IGF-1 sR (IGF-1 sR), CF (R&D Systems Cat#391-GR) (human) (UniProt P08069). The test is described as follows: ECL (MSD multi-spot), Fab 210 nM; blank 833.
The target of test [28] is rHuman Notch-1/Fc Chimera, CF (R&D Systems Cat#3647-TK) (human) (UniProt P46531). The test is described as follows: ECL (MSD multi-spot), Fab 210 nM; blank 833.
In test [29] the target is rHuman EGF R/Fc Chimera, CF (R&D Systems Cat#344-ER) (human) (UniProt P00533). As to the kind of experiment: ECL (MSD multi-spot), Fab 3.3 nM; blank 359.
The target in test [30] is rHuman ErbB2/Fc Chimera, CF (R&D Systems Cat#1129-ER) (human) (UniProt P04626). The test is described as follows: ECL (MSD multi-spot), Fab 3.3 nM; blank 359.
The target of test [31] is rHuman Erythropoietin R/Fc Chimera, CF (R&D Systems Cat#963-ER) (human) (UniProt P19235). As to the kind of experiment: ECL (MSD multi-spot), Fab 3.3 nM; blank 359.
For test [32], the target named is rHuman HGF R/c-MET/Fc Chimera, CF (R&D Systems Cat#358-MT/CF) (human) (UniProt P08581). As to the kind of experiment: ECL (MSD multi-spot), Fab 3.3 nM; blank 359.
Test [33] deals with rHuman IGF-1 sR (IGF-1 sR), CF (R&D Systems Cat#391-GR) (human) (UniProt P08069). The test is described as follows: ECL (MSD multi-spot), Fab 3.3 nM; blank 359.
Test [34] addresses rHuman Notch-1/Fc Chimera, CF (R&D Systems Cat#3647-TK) (human) (UniProt P46531). As to the kind of experiment: ECL (MSD multi-spot), Fab 3.3 nM; blank 359.
The target of test [35] is rHuman EGF R/Fc Chimera, CF (R&D Systems Cat#344-ER) (human) (UniProt P00533). As to the kind of experiment: ECL (MSD multi-spot), Fab 52.5 nM; blank 467.
Test [36] concerns the target rHuman ErbB2/Fc Chimera, CF (R&D Systems Cat#1129-ER) (human) (UniProt P04626). As to the kind of experiment: ECL (MSD multi-spot), Fab 52.5 nM; blank 467.
Test [37] concerns the target rHuman Erythropoietin R/Fc Chimera, CF (R&D Systems Cat#963-ER) (human) (UniProt P19235). The test is described as follows: ECL (MSD multi-spot), Fab 52.5 nM; blank 467.
Test [38] has as its target rHuman HGF R/c-MET/Fc Chimera, CF (R&D Systems Cat#358-MT/CF) (human) (UniProt P08581). As to the kind of experiment: ECL (MSD multi-spot), Fab 52.5 nM; blank 467.
The target in test [39] is rHuman IGF-1 sR (IGF-1 sR), CF (R&D Systems Cat#391-GR) (human) (UniProt P08069). As to the kind of experiment: ECL (MSD multi-spot), Fab 52.5 nM; blank 467.
For test [40], the target named is rHuman Notch-1/Fc Chimera, CF (R&D Systems Cat#3647-TK) (human) (UniProt P46531). The test is described as follows: ECL (MSD multi-spot), Fab 52.5 nM; blank 467.
In test [41] the target is rHuman EGF R/Fc Chimera, CF (R&D Systems Cat#344-ER) (human) (UniProt P00533). The test is described as follows: ECL (MSD multi-spot) screen, antigen spotted on plate, Fab at 0.21 uM; blank spot 489.
The target of test [42] is rHuman ErbB2/Fc Chimera, CF (R&D Systems Cat#1129-ER) (human) (UniProt P04626). Described as above.
Test [43] has as its target rHuman HGF R/c-MET/Fc Chimera, CF (R&D Systems Cat#358-MT/CF) (human) (UniProt P08581). Described as above.
Test [44] concerns the target rHuman IGF-1 sR, CF (R&D Systems Cat#391-GR) (human) (UniProt P08069). Described as above.

Chain of rHuman Erythropoietin R/Fc Chimera, CF (R&D Systems Cat#963-ER) (human) (P19235 25-250, change not shown): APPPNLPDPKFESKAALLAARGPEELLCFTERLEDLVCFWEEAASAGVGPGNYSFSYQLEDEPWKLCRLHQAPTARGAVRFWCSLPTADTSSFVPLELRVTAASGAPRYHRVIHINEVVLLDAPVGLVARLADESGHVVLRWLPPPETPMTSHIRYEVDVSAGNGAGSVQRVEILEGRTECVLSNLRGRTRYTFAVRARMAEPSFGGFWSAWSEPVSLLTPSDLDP

Consider “Fab VH3-23_IGHD3-10*01>3_IGHJ6*01 & O12_IGKJ1*01”, for which the ECL signal in [1] amounted to 2510 ECL signal; in [2], 2700 ECL signal; in test [3] it was 2580 ECL signal; in test [4], 319 ECL signal; in test [5] it was 412 ECL signal; in test [6], 660 ECL signal. Also, the ECL signal was determined as 210 ECL signal in test [7]; 287 ECL signal in test [8]; 218 ECL signal in [9]; 20600 ECL signal in [10]; 15900 ECL signal in test [11]; 14400 ECL signal in [12]. Also, the ECL signal in test [13] was 6650; in test [14], 4580; in test [15] it was 5470; in test [16], 5500.
For the substance “Fab VH4-31_IGHD2-15*01_IGHJ2*01 & V1-4_IGLJ4*01”, the ECL signal in [17] came out at 824 ECL signal; in [18], 930 ECL signal; in test [19], 776 ECL signal; in [20], 981 ECL signal; in test [21] it was 814 ECL signal; in test [22], 669 ECL signal. Further, the ECL signal is 1620 ECL signal in test [23]; 1980 ECL signal in test [24]; 2120 ECL signal in [25]; 2060 ECL signal in test [26]; 1430 ECL signal in [27]; 1970 ECL signal in test [28]. Besides, the ECL signal in test [29] turned out to be 847 ECL signal; in [30] it was 1030 ECL signal; in [31], 695 ECL signal; in test [32], 849 ECL signal; in [33] it was 743 ECL signal; in test [34] it was 726 ECL signal. Moreover, the ECL signal stood at 1110 ECL signal in test [35]; 1510 ECL signal in test [36]; 1320 ECL signal in [37]; 1290 ECL signal in [38]; 911 ECL signal in test [39]; 1320 ECL signal in [40]. For the same substance, the ECL signal turned out to be 1300 in test [41], 1310 in test [42], 1530 in [43] and 1560 in [44].
